Experimental findings from paper PMC9440430, “An intrinsically disordered transcription activation domain increases the DNA binding affinity and reduces the specificity of NFκB p50/RelA” are described below.

Where “and” joins values, the source holds several entries; their conditions need not be identical. Equal entries are not always repeated.

The target in data set [1] is T1, p50/RelA-FL: p50 subunit (39-350);RelA-FL (RHD + TAD) (murine;murine, UniProt P25799;Q04207 39-350;19-549, |). In words: fluorescence anisotropy; SEC buffer 25 mM Tris pH 7.5, 150 mM NaCl, 0.5 mM EDTA, 1 mM DTT (FA buffer not stated explicitly; 5 nM DNA, RT incubation, read at 25 C); EMSA: SEC buffer 1:1. The following applies: protein: recombinant;recombinant, tags: N-terminal His6;none, copies: 1;1. (Polarisation of emitted light reports the rotation of a fluorescent probe.)
T1 sequence (P25799 39-350, chain 1 of 2): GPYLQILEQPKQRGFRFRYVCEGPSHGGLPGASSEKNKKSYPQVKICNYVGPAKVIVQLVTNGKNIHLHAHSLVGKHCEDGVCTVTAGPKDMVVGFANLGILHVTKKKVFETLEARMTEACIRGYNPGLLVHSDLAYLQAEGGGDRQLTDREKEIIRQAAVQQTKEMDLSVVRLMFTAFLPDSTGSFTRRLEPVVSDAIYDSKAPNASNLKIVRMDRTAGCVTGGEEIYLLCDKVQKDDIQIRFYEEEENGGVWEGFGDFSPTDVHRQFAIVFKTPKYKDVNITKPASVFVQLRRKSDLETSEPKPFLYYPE
T1 sequence (Q04207 19-549, chain 2 of 2): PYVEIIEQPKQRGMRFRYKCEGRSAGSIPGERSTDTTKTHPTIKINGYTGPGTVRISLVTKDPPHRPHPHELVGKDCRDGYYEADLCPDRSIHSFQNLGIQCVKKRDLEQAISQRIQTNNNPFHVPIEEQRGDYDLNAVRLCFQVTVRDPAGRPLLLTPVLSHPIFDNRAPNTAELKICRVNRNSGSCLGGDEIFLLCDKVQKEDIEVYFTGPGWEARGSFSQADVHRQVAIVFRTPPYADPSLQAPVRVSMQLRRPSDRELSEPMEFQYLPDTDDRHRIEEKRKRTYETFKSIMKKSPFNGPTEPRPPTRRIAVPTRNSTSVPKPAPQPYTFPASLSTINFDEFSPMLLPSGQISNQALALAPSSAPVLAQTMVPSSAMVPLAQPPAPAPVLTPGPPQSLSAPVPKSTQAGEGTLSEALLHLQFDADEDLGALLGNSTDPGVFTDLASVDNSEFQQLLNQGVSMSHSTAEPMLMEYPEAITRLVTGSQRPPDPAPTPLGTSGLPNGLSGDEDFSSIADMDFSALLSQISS

Data set [2] addresses T2, p50/RelA-FL: p50 subunit (39-350);RelA-RHD (no TAD) (murine;murine, UniProt P25799;Q04207 39-350;19-321, |). The data set is described as above. As to conditions: protein: recombinant;recombinant, tags: N-terminal His6;none, copies: 1;1.
The target of data set [3] is T1, p50/RelA-FL: p50 subunit …. Nature of the data set: EMSA; SEC buffer 25 mM Tris pH 7.5, 150 mM NaCl, 0.5 mM EDTA, 1 mM DTT (FA buffer not stated explicitly; 5 nM DNA, RT incubation, read at 25 C); EMSA: SEC buffer 1:1. As to conditions: protein: recombinant;recombinant; tags: N-terminal His6;none; copies: 1;1. For orientation: In EMSA bound probe runs differently from free probe, usually more slowly.

Data set [4] concerns the target T2, p50/RelA-FL: p50 subunit …. Described as above. As to conditions: protein: recombinant;recombinant; tags: N-terminal His6;none; copies: 1;1.
The mark [5] stands for this setting: label: 5' fluorescein (FITC), hairpin.
[6] abbreviates: label: 5' fluorescein on forward or reverse strand.

T2 sequence (P25799 39-350, chain 1 of 2): as the sequence (P25799 39-350, chain 1 of 2) above
T2 sequence (Q04207 19-321, chain 2 of 2): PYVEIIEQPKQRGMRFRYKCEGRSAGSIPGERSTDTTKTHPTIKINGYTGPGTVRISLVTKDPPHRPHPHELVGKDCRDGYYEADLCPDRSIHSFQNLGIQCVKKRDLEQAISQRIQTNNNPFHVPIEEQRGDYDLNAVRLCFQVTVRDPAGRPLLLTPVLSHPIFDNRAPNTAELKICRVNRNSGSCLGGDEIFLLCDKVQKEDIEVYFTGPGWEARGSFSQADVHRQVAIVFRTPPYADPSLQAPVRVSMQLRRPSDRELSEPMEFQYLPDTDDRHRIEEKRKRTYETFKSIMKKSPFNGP

As a reminder, the Kd is a measure of binding affinity in units of concentration. For GGGAAAGTACTCCCCCAGTACTTTCCC (structured_DNA, 5' 5AmMC6 amino linker) [Urokinase (UK) hairpin], the dissociation constant (Kd) in data set [1] (setting [5]) was determined as 2.2 ± 0.6 nM; in data set [2] (setting [5]), 6.3 ± 1.5 nM.

B1: HIV LTR tandem dsDNA (FA) (dsDNA)
DNA 1: CAAGGGACTTTCCGCTGGGGACTTTCCAGG
DNA 2: CCTGGAAAGTCCCCAGCGGAAAGTCCCTTG
B1: the values for the dissociation constant (Kd) in data set [1] (setting [6]) and in data set [2] (setting [6]) were 1.3 ± 0.4 nM and 1.7 ± 0.4 nM, respectively.

B2: NFKBIA tandem 59 bp (dsDNA)
DNA 1: CTGACTGGCTTGGAAATTCCCCGAGCCTGACCCCGCCCCAGAGAAATCCCCAGCCAGCG
DNA 2: CGCTGGCTGGGGATTTCTCTGGGGCGGGGTCAGGCTCGGGGAATTTCCAAGCCAGTCAG
For B2, the binding result in data set [3] and in data set [4] was “binds” in each case.
Consider GTAGACGTGCTCCCCCAGCACGTCTAC (structured_DNA, 5' 5AmMC6 amino linker) [Random hairpin], for which the equilibrium dissociation constant (Kd) came out at 130 ± 40 nM in data set [1] (setting [5]) and 1500 ± 100 nM in data set [2] (setting [5]).

B3: HIV LTR tandem 33 bp (dsDNA)
DNA 1: AAGGGACTTTCCGCTGGGGACTTTCCAGGGAGG
DNA 2: CCTCCCTGGAAAGTCCCCAGCGGAAAGTCCCTT
B3: the binding result in data set [3] and in data set [4] was “binds” each time.

B4: NFKBIA tandem dsDNA (FA) (dsDNA)
DNA 1: CTTGGAAATTCCCCGAGCCTGACCCCGCCCCAGAGAAATCCCCAG
DNA 2: CTGGGGATTTCTCTGGGGCGGGGTCAGGCTCGGGGAATTTCCAAG
For the molecule B4, the Kd was 1.5 nM and 5.1 nM in data set [1] (setting [6]); 1.7 nM and 10 nM in data set [2] (setting [6]).
